Test results reported in the nanobody polyreactivity screen of Harvey et al. (2022).

Experiment: yeast display, Sf9 membrane polyspecificity reagent, FACS + sequencing; frameworks hold sequencing errors
Procedure, shortened: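 A synthetic nanobody library was expressed on Saccharomyces cerevisiae BJ5465 by galactose induction for 36–48 hours. The library was stained for 1 hour at 4 °C with 10% biotinylated, detergent-solubilized Sf9 membrane reagent and enriched with streptavidin microbeads before FACS. Low and high (top ~1%) gates were set on anti-HA fluorescence for expression and streptavidin fluorescence for reagent binding, and each polyreactivity label reflects the gate of origin.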

Sequence	polyreactivity (PSR sort gate)
QVQLVESGGGLDQAGGSLRLSCAAAGITFTYYAMGWYRPAPGKERELVASITIGGGSTYYADSVKVRFTISRDNAKNTVYLQMKSLKPEDTAVYYCNAAFSVRHLYRYDYWGQGTQVTVSS	low polyreactivity
QVQLVESGGGLVQAGGSLRLSCAASGFTFRYYVMGWYRQAPGNEREFVAAITWADGSTFYAVSVKGRFTISRDKAKNTDYLHMNSLKPEDTAVYYCAADYSRTYRAYDYWGQGTQVTVSS	low polyreactivity
QVQLVESGGGIVQAGGSLRLSCAASGRIFVRNAMGWYRQARGKERELVAAISWSGGTNYADSVKGSFTISRDNAKNTVYLQMNILKPEDTAVYYCAALSVWSYYTYYYWGQGTQVTVSS	high polyreactivity
QVQLVESGGGLVQAGGSLRLSCADSGRTFRIYAMGLYIQAPGKERELVAAITRRGGSTYYADSVKGRFTISRDNAKNTVYLQMNSLKPEDTAVYYCAADLRYGYLYPYDSWGQGTQVTVSS	high polyreactivity
QVQLVESGGGLVQAGGSLRLSCAASGSIFRGNAMGWYRQAPGKERELVASISYSGGSTYYADSVKGRFTISRDTAKNTVYLQMNSLKPEDTAVYYCAADESVAYPYSGYQYYRHIYDYWGQGTQVTVSS	low polyreactivity
QVQLVESGGGLVQAGGSLRLSCAASGFIFYRYAMGWYRQAPGKERELVAAISGSGGRTYYADSVKGRFTISRDNAKNTVYLQMNSLKPEDTAVYYCAADKQAYVTDDYWGKGTQVTVSS	high polyreactivity
QVQLVESGGGLVQAGGSLRLSCAASGSTFYYYAMGWYRQAPGKERELVATIDSGTSTYYADSVKGRFTISRDNAKNTVYLQMISLKPEDTAVYYCAAKTWSWSYGYNYWGQGTQVTVSS	low polyreactivity
QVQLVESGGGLDQAGGSLRLSCAASGFIFYRYAMGWYRQAPGKERELVAAINWSGGGTYYADSVKGRFTISRDNAKNTVYLQMNSLKPEDTAVYYCAAVRSFRGSYWYEYWGQGTKVTVSS	high polyreactivity
QVQLVESGGGLVQAGGSLRLSCAASGFTFWYYAMGWYRQAPGKERELVAAITYNGDRTYYADSVKGRFTISRDNAKNTVYLQMNSLKPEDTAVYYCAAAFVSVRKRYGYWGQGTQVTVSS	high polyreactivity
QVQLVESGGGLVQAGGSLRLSCAASGLIFRNYAMGWYRQAPGKERELVAAISSGGDNTYYADSVKGRFTISRDNAKNTVYLQMNSLKPEDTAVYYCAAGRYVGPSYYAYGYWGQGTQVTVSS	high polyreactivity
QVQLVESGGGLVQAGGSLRLSCAASGRIFVPYVMGWYRQAPGKERELVASISDSDTSTYYADSVKGRFTISRDNAKNTVYVQMNSLKPEDTAVYYCNVDYWGQGTQVTVSS	low polyreactivity
QVQLVESGGGLVQAGGSLRLSCAASGSTFYYYAMGWYRPAPGKERELVAAINYNGGSTHYADSVKGRFTISRDNAKNTVYLQMNSLKPEDTAVYYCAAKYRLSYTHGYWGQGTQVTVSS	low polyreactivity
QVQLVESGRGLDQAGGSLRLSCAASASTFAWYDMGCYRHAPGKEREFVAAIDYGGGSTYADSVKGRFTISRDNAKNTVYLQMNSLKPEDTAVYYCNADNWVYLYDYWGQGTQVTVSS	low polyreactivity
QVQLVESGGGLVQAGGSLRLSCAASGSTLSVYAMGWYRQAPGKERELVAVISRSGGSTYYADSVKGRFTISRDNAKNTVYLQMNSLKPEDTAVYYCAARGRRTGDYDYWGQGTQVTVSS	high polyreactivity
QVQLVESGGGLVQAGGSLRLSCAASGYIFRYNAMGWYRQAPGKERELVAAIRATGGSTYYADSVKGRFTISRDNAKNTVSLQMNSLKPEDTAVYYCNAGGQGRTYRYYYWGQGTQVTVSS	high polyreactivity
QVQLVESGGGLVQAGGSLRLSCAASGSTFKKYAMGWYRQAPGKERELVAAITGSGGRTYYADSVKGRFTISRDTAKNTVYLQMNSLKPEDTAVYYCANLNNYGYDYWGQGTQVTVSS	high polyreactivity
QVQLVESGGGLVQAGGSLRLSCAASGYIFLPNTMGWYRQAPGKERELVAVISKSGTSTYYADSVKGRFTISRDNAKNTVYLQMNSLKPEDTAVYYCNRVYRLTAYGYDYWGQGTQVTLSS	high polyreactivity
QVQLVESGGGLVQAGGSLRLSCAASGFIFGYYAMGGYRQAPGKERELVATIRQTGGSTRYADSVKGRFTISRDNAKNTVYLQMNSLIPEDTAVYYCAAYKWPSWRTWPYDSWGQGPQVTVSS	high polyreactivity
QVQLVESGGGLVQAGGSLRLSCAASGSTFYGYGMGWYSQAPGKERELVAAITKSVGSTYYADSVNGRFTISRDNAKNTVYLQMNSLKPEDTAVYYCARSTRYRRGPSQYAGTYDYWGQGTQVTVSS	low polyreactivity
QVQLVESGGGLVQAGGSLRLSCAASGFTLRLYTMGWYIQAPGKERELVAAISRSGGSTYYADSVKGRFTISRDNAKNTVYLQMNSLKPEDPAVYYCNAKNGRPGFNMYHWGQGTQVTVSS	high polyreactivity
QVQLVESGGGLVQAGGSLRLSCAASVSTFFRNAMGWYRQAPGKERELVAAISKSGTSTYYADSVKGRFTISRDNAKNTVYLQMNSLKPEDTAVYYCAKYGFSYPQSYAYYYWGQGTQVTVSS	high polyreactivity
HDQLVETGGGLVQAGGSLRLSCAASGFTFRAYAMGWYRQAPGKEREFVAAISRRGGSTSYADSVKGRFTISRDNAKNTVYLQMNSLKPEDTAVYYCAATYQILTTSAHDSWGQGTQVTVSS	high polyreactivity

Sequence	polyreactivity (PSR sort gate)
QVQLVESGGGLVQAGGSLRLSCAASGITFSGNAMGWYRQAPGKEREFVAAITFSGGRTYYADSVKGRFTISRDNAKNTVYLQMNSLKPEDTAVYFCAAETPRGRWLGDYWGQGTQVTVSA	low polyreactivity
QVQLVESRGGLVQAGGSLRLSCAASGSTFRYYAMGWYRQAPGKERELVATITARGGSTYADSVKGRFTISRDNAKNTVYLQMNSLKPEDTAVYYCAKRYGRYWDSTYSGDYDYWGQGTQVTVSS	high polyreactivity
QVQLVESGGGLVQAGGSLRLSCAASGSTFYGYTMGWSRQAPGKERELVAVITSGGSTYYADSVKGRFTISRDNAKNTVYLQMNSLKPDDTAVYYCAQRYGYPAYGRPWRIGRTYDYWGQGTQVTVSS	low polyreactivity
QVQLVESGVGLVQAGGSLRLSCAASGIIFASNGMGWYRQAPGKERELVAAISSGGSTNYADSVKGRFTISRDNAKNTVYLQMNSLKPEDTAVYYCAADRWNREYDYWGQGTQVTVSS	low polyreactivity
QDQLVESGGGLVQAGGSLRLICAASGLIFGFNTMACYRQAPGKESEFVAAINGSDGSTYADSVKGRFTISRDNAKNTVYLQMNSLKPEDTAVYYCAARYGSPKEYTYADMDYWGQGTQVTVSS	low polyreactivity
QVQLVESGRGLVQAGGSLRLSCAASGRIFLANAMGWSRQAPGKERELVAAISLSGGRTYYADSVKGRFTISRDIAKNTVYLQMNSLKPEDTAFYYCAAEFYPIGYYGGYDYWGPGTQVTVSS	low polyreactivity
QVHLVESGGGLVQAGGSLRLSCAASGSIFYSNAMGWYRQAPGKERELVAAITRGGSTHYADSVKGRFTISRDNAKNTVYLQMNSLKPEDTAVYYCNKDLNFAKYISSILYDYWGQGTQVSVSS	low polyreactivity
QVQLEESGRGLVQAGGSLRLSCAASGSTFWSYAMGWYRQAPGKERELVATITRAGTTNYADSVKGRFTISRDNAKNTVYLQMNSLKPVDTAVFYCATRRPIYVRAYDYWGQGTQVTVSS	high polyreactivity
QVQLVESGGGLVQAGGSLRLSCAASGSTFSRYAMGWYRQAPGKERELVAAISYSGDSTYYADSVKGRFTISRDNAKNTVYLQMNSLKPEDTAVYYCNVYSHYRGYYWGQGTQVTVSS	high polyreactivity
QVQLVESGGGLVQAGGSLRLSCAASGRIFLFYAMGWYRQAPGKERELVAAISIGSTDYADSVKGRFTISRDNAKNTVYLQMNSLKPEDTAVYYCAADFIITYDEYDYWGQGTQVTVSS	high polyreactivity
QVQLVESGGGLVQAGGSLRLSCAASGLTFPYYAMGWYRQAPGKERELVAVITSGGRTYYADSVKGRFTISRDNAKNTVYLQMNSLKPEDTAVYYCAVGWRTIYGSDGDYWGQGTQVTVST	high polyreactivity
QVQLVESGGGLVQAGGSLRLSCAASGSTFGYYAMRWSRQAPGKERELVAAISGSGGSTYYADSVKGRFTISRDNAKNTVYLQMNSLKQEDTAVYYCATSWAGSEYYYWGQGTQVTVSS	high polyreactivity
QVQLVESGGGLVQAGGSLRLTCAASGRTFVTNAMGWYRQAPGKERELVAAISWSGGDTYYADSVKGRFTISRDNAKYTVYLEMNSLKPEDTAVYYCAAYFWGVYFFGMDYWGQGTLVTVSS	low polyreactivity
QVQLEESGGGLVQAGGSLRLSCAASGLIFARNAMGWYRQAPGKERELVAAISKRGGSTFYADSVKGRFTISRDNAKNTVYLQMKSLNPEDTAVYYCNARSSETWHGDYWGQGTQVTVSS	high polyreactivity
QVQLVESGGCLVQAGGSLRLSCAASGRTFYAYAMGWYRQAPGKERELVAAISWRGGDTYYADSVKGRFTISRDNAKNTVYLQMNSLKPEETGVYYCAKYLSRQSGDGEYDYWGQGTQVTVSS	low polyreactivity
QVQLVESGGGLVQAGGSLRLSCAASGRIFYGNAMGWYRQAPGKERELVAAITRSGSSTYYADSVKGRFTISRDNAKNTVYLQMNSLKPEVTAVYYCAVKYFDYVGQYAYYYWGQGTQVTVSS	high polyreactivity
QVQLVESGGGLVQAGCSLRLSCAASGSTFTYYAMGWYRQAPGKERESVAAISSNGGSTSYADSVKGRFTISRDNAKNTVYLQMNSLKPEDTAVYYCAARSKRLAHDYWGQGTQVTVSS	high polyreactivity
QVQLVETGGGLVQAGGSLRLSCAASGRTFVYNGMGWYRQAPGKERELVAAISGSGGSTYYADSVKGRFTISRDNAKNTVYLQMNSLKPEDTAVYYCATRQGYRLYYWGQGTQVTVSS	high polyreactivity
QVHLVESGGGLVQAGGSLRLSCAASGSIFYYNTMGWYRQAPGKERELVAGISWGGGRTYYADSVKGRFTISRDNAKNTVYLQMNSLKPEDTAVYYCNARHRRLPSNGGYDYWGKGTQVTVSS	high polyreactivity
QVQLVESGGGLVQAGGSLRLSCAASGRTFHVYAMGWYRPAPGKERELVATITDGSTNYADSVKGRFTISRDNAKNTVYLQMNSLKPEDSAVYYCATVRAWIPSGDYEYWGQGTQVTVSS	low polyreactivity
QVQLVESGGGLVQAGGSLRLSCAASGLTFSQNAMGWYRQAPGKERELVAAITRSGSTTHYADSVKGRFTISRDNAKNTVYLQMNSLKPEDTAVYYCAAVAFLTRYYYWGQGTQVTVSS	high polyreactivity
